Reference: patent US20170204158A1 (Regeneron, published 2017)

What was measured:
[1] = target: T1, human IL-33 (R&D Systems, # 3625-IL-010/CF) (human, UniProt O95760 112-270, biotinylated in the blocking ELISA of Example 3 (sites not given)); assay: SPR (Biacore T-200), 37 C; Fc fusion captured by anti-Fc antibody, IL-33 injected
T1 construct: Commercial protein; also called hIL-33; biot-hIL-33
T1 sequence (looked up): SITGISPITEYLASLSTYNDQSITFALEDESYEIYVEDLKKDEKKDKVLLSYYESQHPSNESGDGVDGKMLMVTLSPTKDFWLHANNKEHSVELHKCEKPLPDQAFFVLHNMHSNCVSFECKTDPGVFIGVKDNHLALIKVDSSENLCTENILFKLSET
Protocol: (§1) The Biacore sensor surface was first derivatized by amine coupling a polyclonal rabbit anti-mouse antibody (GE, # BR-1008-38) or with a monoclonal mouse anti-human Fc antibody (GE, # BR-1008-39) to capture IL-33 Trap and receptor proteins with a C-terminal mouse IgG2a Fc tag or a C-terminal human IgG1 Fc tag, respectively. Kinetic experiments were carried out in 0.01 M HEPES pH 7.4, 0.15 M NaCl, 3 mM EDTA, and 0.005% v/v Surfactant Tween-20 (HBST running buffer). Different concentrations of human IL-33, mouse IL-33 or MfIL-33-6His prepared in HBST running buffer (ranging from 60 nM to 27.4 pM, 3-fold dilutions, for Trap proteins and ranging from 60 nM to 0.25 nM, 3-fold dilutions, for ST2 receptor proteins) were injected over the captured IL-33 Trap and receptor protein surfaces at a flow rate of 50 μL/minute. Association of different IL-33 proteins to the different capture surfaces was monitored for 7 minutes for Trap proteins or 4 minutes for ST2 receptor proteins and their dissociation in HBST running buffer was monitored for 14 minutes for Trap proteins or 8 minutes for ST2 receptor proteins. Kinetic association (ka) and dissociation (kd) rate constants were determined by fitting the real-time binding sensorgrams to a 1:1 binding model using Scrubber 2.0c curve-fitting software. Binding dissociation equilibrium constants (KD) and dissociative half-lives (t½) were calculated from the kinetic rate constants as: […]

[2] = target: T2, monkey IL-33 expressed with C-terminal hexahistidine tag (MfIL-33-6His) (cynomolgus monkey (M. fascicularis)); assay: SPR (Biacore T-200), 25 C; Fc fusion captured by anti-Fc antibody, MfIL-33-6His injected
T2 construct: also called M. fascicularis IL-33-6His; cynomolgus monkey IL-33
T2 chain: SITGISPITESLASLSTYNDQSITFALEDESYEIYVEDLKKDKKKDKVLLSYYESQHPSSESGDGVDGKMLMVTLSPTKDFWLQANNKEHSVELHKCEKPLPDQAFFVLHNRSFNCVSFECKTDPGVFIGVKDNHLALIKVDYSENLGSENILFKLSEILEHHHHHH
Protocol: as §1

[3] = target: T1, human IL-33 (R&D Systems, # …); assay: cell-based or functional assay
[4] = target: T2, monkey IL-33 expressed with C-terminal …; assay: SPR (Biacore T-200), 37 C; Fc fusion captured by anti-Fc antibody, MfIL-33-6His injected
Protocol: as §1

[5] = target: T3, mouse IL-33 (R&D Systems, # 3626-ML-010/CF) (mouse, UniProt Q8BVZ5 109-266); assay: SPR (Biacore T-200), 25 C; Fc fusion captured by anti-Fc antibody, mouse IL-33 injected
T3 construct: Commercial protein; also called mIL-33; mIL33
T3 sequence (looked up): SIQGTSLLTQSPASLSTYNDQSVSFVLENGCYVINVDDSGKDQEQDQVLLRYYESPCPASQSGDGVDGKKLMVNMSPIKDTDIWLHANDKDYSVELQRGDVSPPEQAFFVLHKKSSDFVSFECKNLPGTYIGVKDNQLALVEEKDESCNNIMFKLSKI
Protocol: as §1

[6] = target: T1, human IL-33 (R&D Systems, # …); assay: competition ELISA; antagonist pre-mixed with 20 pM biotin-hIL-33, binding to plate-coated human ST2-Fc
Protocol: The ability of exemplary IL-33 antagonists of the invention to block human IL-33 (hIL-33) binding to the human ST2 receptor was measured using a competition sandwich ELISA. A portion of human ST2 protein ecto domain that was expressed with a C-terminal mouse Fc tag (SEQ ID NO:2) was coated at a concentration of 1 μg/mL in PBS buffer on a 96-well microtiter plate overnight at 4° C. […] Biotinylated hIL-33 protein (R&D systems, #3625-IL/CF) (biot-hIL-33) was added to achieve a constant final concentration of 20 pM to serial dilutions of IL-33 antagonists ranging from 0 to 100 nM. The mixture was incubated for 1 hour at room temperature (RT) before transfer to the hST2-hFc coated microtiter plates. After incubation for 1 hour at RT, the wells were then washed, and plate-bound biot-hIL-33 was detected with HRP-conjugated streptavidin (Thermo Scientific, # N200). All samples were developed with a TMB solution (BD biosciences, # 51-2607KC) to produce a colorimetric reaction and then quenched by acidification with 1M sulfuric acid before measuring absorbance at 450 nm on a Victor X5 plate reader (PerkinElmer). Data analysis was performed using a sigmoidal dose-response model within Prism™ software. […] Maximum blocking values represent the ability of the antagonists to block IL-33 binding relative to baseline. The absorbance measured at the constant amount of hIL-33 on the dose curve was defined as 0% blocking and the absorbance with no added IL-33 was defined as 100% blocking. The absorbance values of the wells containing the highest concentration tested for each antagonist were used to determine the maximum blocking percent.

B1: hST2-hIL1RAcP-mFc (Fc fusion)
chain: KFSKQSWGLENEALIVRCPRQGKPSYTVDWYYSQTNKSIPTQERNRVFASGQLLKFLPAAVADSGIYTCIVRSPTFNRTGYANVTIYKKQSDCNVPDYLMYSTVSGSEKNSKIYCPTIDLYNWTAPLEWFKNCQALQGSRYRAHKSFLVIDNVMTEDAGDYTCKFIHNENGANYSVTATRSFTVKDEQGFSLFPVIGAPAQNEIKEVEIGKNANLTCSACFGKGTQFLAAVLWQLNGTKITDFGEPRIQQEEGQNQSFSNGLACLDMVLRIADVKEEDLLLQYDCLALNLHGLRRHTVRLSRKNPIDHHSSERCDDWGLDTMRQIQVFEDEPARIKCPLFEHFLKFNYSTAHSAGLTLIWYWTRQDRDLEEPINFRLPENRISKEKDVLWFRPTLLNDTGNYTCMLRNTTYCSKVAFPLEVVQKDSCFNSPMKLPVHKLYIEYGIQRITCPNVDGYFPSSVKPTITWYMGCYKIQNFNNVIPEGMNLSFLIALISNNGNYTCVVTYPENGRTFHLTRTLTVKVVGSPKNAVPPVIHSPNDHVVYEKEPGEELLIPCTVYFSFLMDSRNEVWWTIDGKKPDDITIDVTINESISHSRTEDETRTQILSIKKVTSEDLKRSYVCHARSAKGEVAKAAKVKQKVPAPRYTVESGEPRGPTIKPCPPCKCPAPNLLGGPSVFIFPPKIKDVLMISLSPIVTCVVVDVSEDDPDVQISWFVNNVEVHTAQTQTHREDYNSTLRVVSALPIQHQDWMSGKEFKCKVNNKDLPAPIERTISKPKGSVRAPQVYVLPPPEEEMTKKQVTLTCMVTDFMPEDIYVEWTNNGKTELNYKNTEPVLDSDGSYFMYSKLRVEKKNWVERNSYSCSVVHEGLHNHHTTKSFSRTPGK
notes: also called third IL-33 antagonist; human IL-33 Trap
- 60 nM Human IL-33 Bound (RU) [1]: 28 RU
- Kd [1]: 0.00111 nM
- koff [1]: 2.02e-05 s⁻¹
- kon [1]: 1.82e+07 M⁻¹ s⁻¹
- t1/2 [1]: 9.55 h
- 60 nM Monkey IL-33 Bound (RU) [2]: 28 RU
- Kd [2]: 0.00313 nM
- koff [2]: 4.09e-05 s⁻¹
- kon [2]: 1.31e+07 M⁻¹ s⁻¹
- t1/2 [2]: 4.7 h
- IC50 (M), blocking of IL-33 induced IFN-gamma release from human PBMC, donor 634966 [3]: 2.13e-12 M
- IC50 (M), blocking of IL-33 induced IFN-gamma release from human PBMC, donor 655681 [3]: 4.59e-11 M
- IC50 (M), blocking of IL-33 induced IFN-gamma release from human PBMC, donor 655682 [3]: 3.97e-12 M
- IC50 (M), blocking of IL-33 induced IFN-gamma release from human PBMC, donor 655684 [3]: 6.79e-11 M
- IC50 (M), blocking of IL-33 induced IFN-gamma release from human PBMC, donor 698842 [3]: 7.39e-11 M
- IC50 (M), blocking of IL-33 induced IFN-gamma release from human PBMC, donor 698843 [3]: 1.73e-11 M
- IC50 (M), blocking of IL-33 induced IFN-gamma release from human PBMC, donor 727054 [3]: 3.34e-10 M
- IC50 (M), blocking of IL-33 induced IFN-gamma release from human PBMC, donor 727055 [3]: 1.23e-10 M
- 60 nM Monkey IL-33 Bound (RU) [4]: 27 RU
- Kd [4]: 0.00329 nM
- koff [4]: 4.79e-05 s⁻¹
- kon [4]: 1.45e+07 M⁻¹ s⁻¹
- t1/2 [4]: 4.02 h
- 60 nM Mouse IL-33 Bound (RU) [5]: 22 RU
- Kd [5]: 0.0192 nM
- koff [5]: 8.97e-05 s⁻¹
- kon [5]: 4.67e+06 M⁻¹ s⁻¹
- t1/2 [5]: 2.15 h
- IC50 [6]: 0.00634 nM
